In article PMC4191604 (Journal of Medicinal Chemistry, 2014):

Tests used:
Assay in all cases: SPR
[1] = molecular target: T1, GBP1 GTPase (human GBP1, recombinant wild type) (human, UniProt P32455 1-592)
T1 sequence (looked up): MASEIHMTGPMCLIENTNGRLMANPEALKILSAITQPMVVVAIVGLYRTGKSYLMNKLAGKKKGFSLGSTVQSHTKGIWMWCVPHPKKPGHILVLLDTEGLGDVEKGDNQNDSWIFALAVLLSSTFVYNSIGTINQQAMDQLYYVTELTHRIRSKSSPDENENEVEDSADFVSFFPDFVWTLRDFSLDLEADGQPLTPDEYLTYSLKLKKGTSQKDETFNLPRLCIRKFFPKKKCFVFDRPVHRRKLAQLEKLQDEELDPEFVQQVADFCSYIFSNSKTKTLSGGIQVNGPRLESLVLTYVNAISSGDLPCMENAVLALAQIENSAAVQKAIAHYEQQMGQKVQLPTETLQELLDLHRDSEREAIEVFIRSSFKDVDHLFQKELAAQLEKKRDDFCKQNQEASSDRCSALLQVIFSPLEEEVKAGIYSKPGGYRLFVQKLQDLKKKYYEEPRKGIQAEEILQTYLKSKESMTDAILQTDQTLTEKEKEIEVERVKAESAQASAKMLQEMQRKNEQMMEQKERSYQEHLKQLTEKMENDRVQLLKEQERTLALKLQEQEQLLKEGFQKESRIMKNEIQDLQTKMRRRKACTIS

GBP1 mutant R227A/K228A = molecular target: T2, GBP1 mutant R227A/K228A (human, UniProt P32455 1-592, R227A | K228A)
T2 sequence (looked up): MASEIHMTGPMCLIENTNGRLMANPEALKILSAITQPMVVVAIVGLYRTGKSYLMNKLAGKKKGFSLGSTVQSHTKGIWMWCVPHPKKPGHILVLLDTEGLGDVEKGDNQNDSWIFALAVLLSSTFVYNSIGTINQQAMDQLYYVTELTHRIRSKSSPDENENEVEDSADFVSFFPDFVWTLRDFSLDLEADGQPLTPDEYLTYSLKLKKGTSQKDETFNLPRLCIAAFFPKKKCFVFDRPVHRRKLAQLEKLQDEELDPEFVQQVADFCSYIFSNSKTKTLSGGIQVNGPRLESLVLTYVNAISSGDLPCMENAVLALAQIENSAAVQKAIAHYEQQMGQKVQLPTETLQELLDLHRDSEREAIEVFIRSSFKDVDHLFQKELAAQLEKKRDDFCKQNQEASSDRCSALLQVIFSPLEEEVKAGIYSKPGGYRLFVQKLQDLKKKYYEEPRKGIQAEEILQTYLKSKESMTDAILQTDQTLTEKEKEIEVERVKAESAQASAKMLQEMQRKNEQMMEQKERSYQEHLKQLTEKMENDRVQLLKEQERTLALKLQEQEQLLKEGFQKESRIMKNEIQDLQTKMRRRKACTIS

GBP1 mutant K51A = molecular target: T3, GBP1 mutant K51A (human, UniProt P32455 1-592, K51A)
T3 sequence (looked up): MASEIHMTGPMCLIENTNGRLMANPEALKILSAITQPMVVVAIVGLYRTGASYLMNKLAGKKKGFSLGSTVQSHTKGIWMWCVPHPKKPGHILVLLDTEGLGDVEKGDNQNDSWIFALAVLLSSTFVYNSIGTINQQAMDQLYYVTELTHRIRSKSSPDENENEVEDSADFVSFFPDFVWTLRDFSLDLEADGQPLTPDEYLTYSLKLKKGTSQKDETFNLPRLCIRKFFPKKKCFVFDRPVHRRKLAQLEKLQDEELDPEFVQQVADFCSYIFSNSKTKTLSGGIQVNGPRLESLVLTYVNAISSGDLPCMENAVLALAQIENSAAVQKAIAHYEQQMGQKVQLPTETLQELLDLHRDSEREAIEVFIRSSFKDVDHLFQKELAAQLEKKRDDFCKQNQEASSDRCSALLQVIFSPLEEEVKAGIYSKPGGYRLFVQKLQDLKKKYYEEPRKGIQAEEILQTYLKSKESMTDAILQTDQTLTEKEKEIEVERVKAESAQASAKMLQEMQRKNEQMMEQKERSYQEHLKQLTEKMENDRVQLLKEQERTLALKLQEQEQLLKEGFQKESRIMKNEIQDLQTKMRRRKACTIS

GBP1 mutant Q72A = molecular target: T4, GBP1 mutant Q72A (human, UniProt P32455 1-592, Q72A)
T4 sequence (looked up): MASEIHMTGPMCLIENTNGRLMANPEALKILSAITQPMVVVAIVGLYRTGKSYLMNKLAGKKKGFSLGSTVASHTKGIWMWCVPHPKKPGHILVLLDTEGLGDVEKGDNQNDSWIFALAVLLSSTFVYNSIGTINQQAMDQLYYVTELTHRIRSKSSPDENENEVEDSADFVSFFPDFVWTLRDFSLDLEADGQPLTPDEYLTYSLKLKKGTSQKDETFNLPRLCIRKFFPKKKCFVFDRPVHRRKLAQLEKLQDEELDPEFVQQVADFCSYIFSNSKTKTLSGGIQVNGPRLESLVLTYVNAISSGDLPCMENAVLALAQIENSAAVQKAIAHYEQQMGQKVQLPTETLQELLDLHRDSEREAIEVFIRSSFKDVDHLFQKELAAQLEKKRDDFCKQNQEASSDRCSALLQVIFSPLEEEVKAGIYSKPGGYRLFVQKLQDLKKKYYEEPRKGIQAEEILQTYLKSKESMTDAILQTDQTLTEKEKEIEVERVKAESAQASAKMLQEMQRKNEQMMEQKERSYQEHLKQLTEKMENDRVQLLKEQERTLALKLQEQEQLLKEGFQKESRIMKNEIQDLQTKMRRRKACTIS

Kd [1]: 30 ± 10 nM
Kd (GBP1 mutant R227A/K228A): 61 ± 4 nM
Kd (GBP1 mutant K51A): 26 ± 11 nM
Kd (GBP1 mutant Q72A): 161 ± 17 nM
B1: PIM1 (recombinant) (enzyme)
chain: not shown
